Patent US20140072613A1 (published 2014)

T1: DCAMKL2(h) (human, UniProt Q8N568 372-714, limits assumed)
T1 sequence (looked up): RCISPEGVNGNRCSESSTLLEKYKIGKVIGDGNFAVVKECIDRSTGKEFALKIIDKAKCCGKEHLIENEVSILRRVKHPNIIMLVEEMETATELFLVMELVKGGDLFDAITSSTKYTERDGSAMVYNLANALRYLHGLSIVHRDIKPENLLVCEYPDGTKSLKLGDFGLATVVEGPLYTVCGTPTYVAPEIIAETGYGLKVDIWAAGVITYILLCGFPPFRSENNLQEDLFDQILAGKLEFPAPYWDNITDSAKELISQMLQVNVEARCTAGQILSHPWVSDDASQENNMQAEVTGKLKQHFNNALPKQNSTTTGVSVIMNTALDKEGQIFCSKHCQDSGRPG

T2: IKKβ(h) (human, UniProt O14920 1-756)
T2 sequence (looked up): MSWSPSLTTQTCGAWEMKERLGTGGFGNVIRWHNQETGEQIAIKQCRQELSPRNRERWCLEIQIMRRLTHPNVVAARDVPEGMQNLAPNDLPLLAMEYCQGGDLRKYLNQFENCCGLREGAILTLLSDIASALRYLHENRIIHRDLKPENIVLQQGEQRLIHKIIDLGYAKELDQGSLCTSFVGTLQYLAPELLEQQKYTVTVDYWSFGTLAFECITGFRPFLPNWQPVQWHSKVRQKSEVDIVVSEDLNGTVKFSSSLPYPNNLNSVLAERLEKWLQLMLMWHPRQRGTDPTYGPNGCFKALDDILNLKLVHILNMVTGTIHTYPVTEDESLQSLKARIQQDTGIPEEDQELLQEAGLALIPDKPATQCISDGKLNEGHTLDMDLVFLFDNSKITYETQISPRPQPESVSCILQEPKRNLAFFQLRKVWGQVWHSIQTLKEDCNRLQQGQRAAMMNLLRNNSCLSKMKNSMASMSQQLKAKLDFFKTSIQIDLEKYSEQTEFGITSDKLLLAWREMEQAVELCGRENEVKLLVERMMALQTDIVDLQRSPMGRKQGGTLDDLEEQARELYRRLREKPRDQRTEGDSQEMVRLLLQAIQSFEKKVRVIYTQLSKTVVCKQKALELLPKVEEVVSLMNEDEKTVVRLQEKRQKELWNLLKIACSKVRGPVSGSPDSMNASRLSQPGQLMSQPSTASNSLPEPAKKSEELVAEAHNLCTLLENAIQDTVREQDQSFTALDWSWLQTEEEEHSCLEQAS

T3: Flt3(h) (human, UniProt P36888 564-993, limits assumed)
T3 sequence (looked up): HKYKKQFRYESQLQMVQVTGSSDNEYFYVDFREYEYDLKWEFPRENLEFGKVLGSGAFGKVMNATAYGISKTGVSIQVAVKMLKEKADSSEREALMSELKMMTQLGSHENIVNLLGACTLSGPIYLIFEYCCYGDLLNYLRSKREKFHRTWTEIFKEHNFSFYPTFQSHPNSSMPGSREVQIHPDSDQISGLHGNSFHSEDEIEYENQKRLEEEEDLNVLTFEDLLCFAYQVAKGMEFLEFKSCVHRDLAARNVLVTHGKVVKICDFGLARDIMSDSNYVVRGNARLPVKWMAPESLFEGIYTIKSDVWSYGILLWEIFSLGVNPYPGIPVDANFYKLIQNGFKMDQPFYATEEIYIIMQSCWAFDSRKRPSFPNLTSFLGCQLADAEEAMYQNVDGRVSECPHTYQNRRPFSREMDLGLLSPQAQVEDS

T4: SAPK3(h) (human, UniProt P53778 1-367)
T4 sequence (looked up): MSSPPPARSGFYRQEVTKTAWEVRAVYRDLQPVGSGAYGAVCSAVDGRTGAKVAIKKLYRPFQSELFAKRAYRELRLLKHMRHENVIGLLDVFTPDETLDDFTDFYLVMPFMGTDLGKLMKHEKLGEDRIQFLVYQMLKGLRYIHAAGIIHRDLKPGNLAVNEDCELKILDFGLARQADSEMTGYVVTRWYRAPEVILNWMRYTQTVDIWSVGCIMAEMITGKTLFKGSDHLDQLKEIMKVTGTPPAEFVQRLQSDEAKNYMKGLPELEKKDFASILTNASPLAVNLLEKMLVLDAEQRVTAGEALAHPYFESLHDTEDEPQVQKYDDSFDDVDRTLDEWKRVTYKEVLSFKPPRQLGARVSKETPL

T5: Mer(h) (human, UniProt Q12866 578-872, limits assumed)
T5 sequence (looked up): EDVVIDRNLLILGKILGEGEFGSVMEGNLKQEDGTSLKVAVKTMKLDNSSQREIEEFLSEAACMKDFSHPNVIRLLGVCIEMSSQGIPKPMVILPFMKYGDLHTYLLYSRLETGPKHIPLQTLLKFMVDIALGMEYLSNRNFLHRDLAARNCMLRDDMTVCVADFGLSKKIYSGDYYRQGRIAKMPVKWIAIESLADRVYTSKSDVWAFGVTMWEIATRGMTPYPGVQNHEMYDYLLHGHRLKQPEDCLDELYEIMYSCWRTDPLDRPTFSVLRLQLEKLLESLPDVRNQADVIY


Assays:
Assay in all cases: cell-based or functional assay
IRR(h) = IRR(h) (human, UniProt P14616 960-1297, limits assumed)
FGFR1(h) = FGFR1(h) (human, UniProt P11362 456-765, limits assumed)
ROCK-I(h) = ROCK-I(h) (human, UniProt Q13464 17-535, limits assumed)
MSSK1(h) = MSSK1(h) (human, UniProt Q9UPE1 1-567, limits assumed)
DCAMKL2(h) = molecular target: T1, DCAMKL2(h)
IKKβ(h) = molecular target: T2, IKKβ(h)
Met(Y1248D)(h) = Met(Y1248D)(h) (human, UniProt P08581-2 974-1408, limits assumed)
HIPK1(h) = HIPK1(h) (human, UniProt Q86Z02 158-555, limits assumed)
Flt3(h) = molecular target: T3, Flt3(h)
MAPK2(h) = MAPK2(h) (human, UniProt P28482 1-360)
MLCK(h) = MLCK(h) (human)
SAPK3(h) = molecular target: T4, SAPK3(h)
Mer(h) = molecular target: T5, Mer(h)
KDR(h) = KDR(h) (human, UniProt P35968 790-1356, limits assumed)
KDR(h), sequence (P35968 790-1356 limits assumed): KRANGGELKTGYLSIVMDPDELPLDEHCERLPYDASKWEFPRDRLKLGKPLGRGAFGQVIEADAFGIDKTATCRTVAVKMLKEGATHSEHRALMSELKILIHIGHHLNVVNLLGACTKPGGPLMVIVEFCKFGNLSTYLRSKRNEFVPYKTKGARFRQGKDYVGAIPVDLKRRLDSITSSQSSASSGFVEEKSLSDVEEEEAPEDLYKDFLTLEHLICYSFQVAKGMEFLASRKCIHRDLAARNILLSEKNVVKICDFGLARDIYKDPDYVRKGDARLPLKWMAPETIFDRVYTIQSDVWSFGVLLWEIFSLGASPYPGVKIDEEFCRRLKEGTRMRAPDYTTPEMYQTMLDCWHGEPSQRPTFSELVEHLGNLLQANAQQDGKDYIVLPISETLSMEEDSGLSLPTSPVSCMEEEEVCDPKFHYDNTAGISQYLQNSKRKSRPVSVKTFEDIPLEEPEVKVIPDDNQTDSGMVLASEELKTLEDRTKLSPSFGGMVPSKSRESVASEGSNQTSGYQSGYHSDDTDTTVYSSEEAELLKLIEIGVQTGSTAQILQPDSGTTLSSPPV

MAPK2(h), sequence (P28482 whole entry): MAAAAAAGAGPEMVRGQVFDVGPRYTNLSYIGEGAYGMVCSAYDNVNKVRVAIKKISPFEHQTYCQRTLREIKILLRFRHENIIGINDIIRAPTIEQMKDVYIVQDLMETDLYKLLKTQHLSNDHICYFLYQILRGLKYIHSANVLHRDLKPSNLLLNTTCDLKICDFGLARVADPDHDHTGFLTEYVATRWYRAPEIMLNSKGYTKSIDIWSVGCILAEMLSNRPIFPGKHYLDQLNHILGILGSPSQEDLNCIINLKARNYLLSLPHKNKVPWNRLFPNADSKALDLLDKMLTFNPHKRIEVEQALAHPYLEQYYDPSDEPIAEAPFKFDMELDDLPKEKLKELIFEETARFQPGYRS
MSSK1(h), sequence (Q9UPE1 whole entry): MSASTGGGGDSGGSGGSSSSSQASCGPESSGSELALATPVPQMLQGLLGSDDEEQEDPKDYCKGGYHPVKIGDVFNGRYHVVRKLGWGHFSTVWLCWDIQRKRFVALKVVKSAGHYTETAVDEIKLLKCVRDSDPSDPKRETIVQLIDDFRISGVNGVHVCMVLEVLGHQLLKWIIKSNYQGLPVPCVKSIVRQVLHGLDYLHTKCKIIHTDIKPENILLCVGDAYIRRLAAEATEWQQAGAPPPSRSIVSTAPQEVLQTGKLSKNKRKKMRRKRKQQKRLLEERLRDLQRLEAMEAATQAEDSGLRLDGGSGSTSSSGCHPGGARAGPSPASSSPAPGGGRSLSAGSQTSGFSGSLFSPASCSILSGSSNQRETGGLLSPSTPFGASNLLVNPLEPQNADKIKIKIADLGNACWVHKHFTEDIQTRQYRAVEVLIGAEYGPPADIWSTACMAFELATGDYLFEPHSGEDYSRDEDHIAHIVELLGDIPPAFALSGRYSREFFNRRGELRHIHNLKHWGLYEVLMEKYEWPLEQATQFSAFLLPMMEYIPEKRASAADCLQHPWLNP
IRR(h), sequence (P14616 960-1297 limits assumed): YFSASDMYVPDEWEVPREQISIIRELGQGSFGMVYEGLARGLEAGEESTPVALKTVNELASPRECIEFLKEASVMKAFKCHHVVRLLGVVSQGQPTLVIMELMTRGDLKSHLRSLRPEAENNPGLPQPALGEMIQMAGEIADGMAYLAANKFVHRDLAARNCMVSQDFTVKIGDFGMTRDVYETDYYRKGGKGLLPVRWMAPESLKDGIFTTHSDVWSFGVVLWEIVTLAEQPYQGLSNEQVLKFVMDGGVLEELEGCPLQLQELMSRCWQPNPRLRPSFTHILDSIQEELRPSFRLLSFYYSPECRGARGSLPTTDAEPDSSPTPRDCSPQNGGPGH
HIPK1(h), sequence (Q86Z02 158-555 limits assumed): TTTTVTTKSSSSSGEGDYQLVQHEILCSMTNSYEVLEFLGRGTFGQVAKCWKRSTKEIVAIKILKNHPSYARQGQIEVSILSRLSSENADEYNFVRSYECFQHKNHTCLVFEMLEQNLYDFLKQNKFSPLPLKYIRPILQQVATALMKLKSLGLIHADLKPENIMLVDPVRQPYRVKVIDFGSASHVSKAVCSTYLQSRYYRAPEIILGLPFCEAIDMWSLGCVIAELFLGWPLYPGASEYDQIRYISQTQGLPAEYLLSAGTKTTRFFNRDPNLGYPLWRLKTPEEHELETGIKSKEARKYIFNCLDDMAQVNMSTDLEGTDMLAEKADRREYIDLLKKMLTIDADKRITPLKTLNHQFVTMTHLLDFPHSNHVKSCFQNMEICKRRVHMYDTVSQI
ROCK-I(h), sequence (Q13464 17-535 limits assumed): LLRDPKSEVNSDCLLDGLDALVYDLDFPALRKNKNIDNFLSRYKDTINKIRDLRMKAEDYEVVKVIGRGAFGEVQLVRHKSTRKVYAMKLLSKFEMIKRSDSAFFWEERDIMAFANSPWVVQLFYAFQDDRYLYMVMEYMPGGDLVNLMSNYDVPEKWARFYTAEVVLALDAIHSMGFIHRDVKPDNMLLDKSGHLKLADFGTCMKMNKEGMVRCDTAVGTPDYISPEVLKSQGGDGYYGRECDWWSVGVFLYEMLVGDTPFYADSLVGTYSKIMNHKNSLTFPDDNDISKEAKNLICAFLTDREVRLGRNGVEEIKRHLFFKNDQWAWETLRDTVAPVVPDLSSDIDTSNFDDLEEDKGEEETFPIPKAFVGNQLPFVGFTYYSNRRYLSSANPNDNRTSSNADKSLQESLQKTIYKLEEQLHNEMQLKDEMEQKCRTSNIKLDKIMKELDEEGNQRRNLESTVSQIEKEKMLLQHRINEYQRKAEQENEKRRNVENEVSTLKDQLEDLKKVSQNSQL
FGFR1(h), sequence (P11362 456-765 limits assumed): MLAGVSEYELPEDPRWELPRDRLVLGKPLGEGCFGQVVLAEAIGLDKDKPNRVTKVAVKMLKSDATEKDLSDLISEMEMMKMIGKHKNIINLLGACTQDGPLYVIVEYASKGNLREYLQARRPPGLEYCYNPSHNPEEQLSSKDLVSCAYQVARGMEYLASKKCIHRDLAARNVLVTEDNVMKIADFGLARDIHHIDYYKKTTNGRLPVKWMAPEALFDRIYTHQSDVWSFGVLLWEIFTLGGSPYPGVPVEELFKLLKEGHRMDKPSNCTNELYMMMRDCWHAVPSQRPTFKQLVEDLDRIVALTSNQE

| Binder | % activity, 100 µM (IRR(h)) | % activity, 100 µM (FGFR1(h)) | % activity, 100 µM (ROCK-I(h)) | % activity, 100 µM (MSSK1(h)) | % activity, 100 µM (DCAMKL2(h)) | % activity, 100 µM (IKKβ(h)) | % activity, 100 µM (Met(Y1248D)(h)) | % activity, 100 µM (HIPK1(h)) | % activity, 100 µM (Flt3(h)) | % activity, 100 µM (MAPK2(h)) | % activity, 100 µM (MLCK(h)) | % activity, 100 µM (SAPK3(h)) | % activity, 100 µM (Mer(h)) | % activity, 100 µM (KDR(h)) |
| --- | --- | --- | --- | --- | --- | --- | --- | --- | --- | --- | --- | --- | --- | --- |
| FAKLAARLYRKALARQLGVAA [MMI-0300] | 8% | 55% | 79% | 77% | 81% | 84% | 102% | 74% | 84% | 98% | 2% | 84% | 52% | 101% |
| KAFAKLAARLYRKALARQLGVAA [MMI-0400] | 8% | 59% | 73% | 75% | 70% | 84% | 31% | 91% | 18% | 93% | 1% | 79% | 50% | 94% |
